Results published in paper PMC2935386, “Dissecting the Relation between a Nuclear Receptor and GATA: Binding Affinity Studies of Thyroid Hormone Receptor and GATA2 on TSHβ Promoter”.

Experiments:
[1] = molecular target: T1, TRβ1 DBD-LBD (TR DL, TRβ1ΔAB);RXRα1 DBD-LBD (RXR DL, RXRα1ΔAB) (human;, UniProt P10828;P19793 102-461;126-462, |); experiment: fluorescence anisotropy; T3; Hill n 1.8±0.1; Fluorescence anisotropy: 10 nM DNA, 20 mM Hepes pH 8.0, 50 mM NaCl, 1 mM MgCl2, 3 mM DTT, 5% glycerol, 10°C; agarose gel 1.3% in 0.5x TBE; settings: protein: recombinant;recombinant; tags: His (pET28a);His (pET28a); copies: 1;1; label: 5' fluorescein (FITC) on forward strand; blunt
T1 sequence (P10828 102-461, stated change not applied, chain 1 of 2): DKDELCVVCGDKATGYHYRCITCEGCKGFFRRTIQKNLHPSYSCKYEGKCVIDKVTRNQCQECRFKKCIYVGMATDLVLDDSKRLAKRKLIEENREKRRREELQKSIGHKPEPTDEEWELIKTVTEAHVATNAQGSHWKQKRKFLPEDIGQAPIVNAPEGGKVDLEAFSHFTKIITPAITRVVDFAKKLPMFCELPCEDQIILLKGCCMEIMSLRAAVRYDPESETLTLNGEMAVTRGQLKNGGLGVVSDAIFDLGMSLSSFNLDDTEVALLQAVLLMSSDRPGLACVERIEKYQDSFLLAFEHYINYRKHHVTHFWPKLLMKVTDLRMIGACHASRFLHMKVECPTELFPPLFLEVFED
T1 sequence (P19793 126-462, stated change not applied, chain 2 of 2): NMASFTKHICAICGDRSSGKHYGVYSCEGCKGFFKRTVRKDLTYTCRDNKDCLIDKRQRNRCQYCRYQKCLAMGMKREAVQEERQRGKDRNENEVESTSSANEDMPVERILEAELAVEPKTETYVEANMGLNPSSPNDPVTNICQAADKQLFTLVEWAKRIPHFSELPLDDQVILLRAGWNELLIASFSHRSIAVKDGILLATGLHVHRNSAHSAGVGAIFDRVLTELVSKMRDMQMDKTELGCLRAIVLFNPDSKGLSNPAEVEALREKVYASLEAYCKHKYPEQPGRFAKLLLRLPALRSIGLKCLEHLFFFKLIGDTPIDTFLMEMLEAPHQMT

[2] = molecular target: T1, TRβ1 DBD-LBD (TR DL, TRβ1ΔAB);RXRα1 …; experiment: fluorescence anisotropy; T3; Hill n 3.7±1; text refers to previous studies [36],[37] but listed in this paper's Table 1 and Fig. 2; Fluorescence anisotropy: 10 nM DNA, 20 mM Hepes pH 8.0, 50 mM NaCl, 1 mM MgCl2, 3 mM DTT, 5% glycerol, 10°C; agarose gel 1.3% in 0.5x TBE; settings: protein: recombinant;recombinant; tags: His (pET28a);His (pET28a); copies: 1;1; label: 5' fluorescein (FITC) on forward strand; blunt
[3] = molecular target: GATA2-Zf;TRβ1 DBD-LBD (TR DL, TRβ1ΔAB) (;human, UniProt P23769;P10828 291-412;102-461, |); experiment: fluorescence anisotropy; T3; Hill n 1±0.2; Fluorescence anisotropy: 10 nM DNA, 20 mM Hepes pH 8.0, 50 mM NaCl, 1 mM MgCl2, 3 mM DTT, 5% glycerol, 10°C; agarose gel 1.3% in 0.5x TBE; settings: protein: recombinant;recombinant; tags: His, thrombin treated;His (pET28a); copies: 1;1; label: 5' fluorescein (FITC) on forward strand; blunt
Sequence of GATA2-Zf;TRβ1 DBD-LBD (TR DL, TRβ1ΔAB) (P23769 291-412, stated change not applied, chain 1 of 2): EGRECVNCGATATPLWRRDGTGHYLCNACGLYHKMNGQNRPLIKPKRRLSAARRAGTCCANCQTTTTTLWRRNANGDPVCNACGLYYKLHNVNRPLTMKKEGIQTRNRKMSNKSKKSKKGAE
Sequence of GATA2-Zf;TRβ1 DBD-LBD (TR DL, TRβ1ΔAB) (P10828 102-461, stated change not applied, chain 2 of 2): as the sequence (P10828 102-461, stated change not applied, chain 1 of 2) above

Binder | Kd [3] | further results
TSH NRE (dsDNA) DNA 1: TGGGTCACCACAGCATCTGCTCACCAATGCAAAGT DNA 2: ACTTTGCATTGGTGAGCAGATGCTGTGGTGACCCA | – | Kd [1]: 720 ± 19 nM
DR4 TRE (dsDNA) DNA 1: AGTTCAGGTCACAGGAGGTCAGAG DNA 2: CTCTGACCTCCTGTGACCTGAACT | – | Kd [2]: 39.4 ± 2.2 nM
GATA-RE (canonical) (dsDNA) DNA 1: CACTTGATAACAGAAAGTGATAACTCT DNA 2: AGAGTTATCACTTTCTGTTATCAAGTG | 140 ± 29.8 nM | –
TSH GATA-RE (dsDNA) DNA 1: TCAATAGATGCTTTTCAGATAAGAA DNA 2: TTCTTATCTGAAAAGCATCTATTGA | 38.6 ± 7.9 nM | –
